Consider 13 molecules from patent publication US20250368753A1.

Substitutions are numbered along the chain they refer to.

First the molecules themselves.
B1: AB-4 (antibody, V domains shown)
VH: QVQLVQSGAEVKKPGASVKVSCKASGYTFTSYYMHWVRQAPGQGLEWMGEIRPSGGSTNYNEKFKSRVTMTRDTSTSTVYMELSSLRSEDTAVYYCARDRPLYSMDVWGQGTTVTVSS
VL: DIQMTQSPSSLSASVGDRVTITCRASQGISSALAWYQQKPGKAPKLLIYSASYRYTGVPSRFSGSGSGTDFTFTISSLQPEDIATYYCQQHYSSSWTFGQGTKLEIK
B2: AB-9 (antibody, V domains shown)
VH: B1 VH with R52K, S57T, T58S, S104Y, M105S
VL: B1 VL with S31G, A32S, H91Y, S94N, S95Y
B3: Reference Antibody (antibody, V domains shown)
VH: B1 VH with R52S, S54F, S57R, D99E, S104A, M105S, V107L
VL: B1 VL with H91R, S94L, S95W, W96R
B4: AB-1 (antibody, V domains shown)
VH: B1 VH with R52L, S54G, S57T, E62Q, D99E, R100S, S104A, M105S, V107I
VL: B1 VL with S31T, R54L, H91R, S94L, S95W, W96R
B5: AB-7 (antibody, V domains shown)
VH: B1 VH with R52F, S57R, D99E, L102F, S104A, M105S, V107L
VL: B1 VL with Y53N, R54L, H91R, S94L, S95W, W96R
B6: AB-5 (antibody, V domains shown)
VH: B1 VH with Y33W, R52S, D99E, S104A
VL: B1 VL with H91R, S94L, S95W, W96R
B7: AB-3 (antibody, V domains shown)
VH: B1 VH with Y33W, R52D, E62Q, K65Q, D99E, S104A, M105S
VL: B1 VL with H91R, S94L, S95W, W96R
B8: AB-6 (antibody, V domains shown)
VH: B1 VH with R52S, S54F, S57T, D99E, M105S
VL: B1 VL with R54L, T56S, H91R, S94L, S95W, W96Y
B9: AB-2 (antibody, V domains shown)
VH: B1 VH with E50W, R52E, S54F, S57R, D99E, S104A
VL: B1 VL with S31G, H91R, S94L, W96R
B10: AB-8 (antibody, V domains shown)
VH: B1 VH with R52L, S57R, D99E, S104A, V107I
VL: B1 VL with H91R, S94T, S95W, W96R
B11: AB-10 (antibody, V domains shown)
VH: B1 VH with R52L, S57R, D99E, S104A
VL: B1 VL with H91R, S94V, S95A, W96L
B12: AB-11 (antibody, V domains shown)
VH: B1 VH with T28S, R52D, P53L, E62Q, K65Q, D99E, S104A, M105F
VL: B1 VL with H91R, S94L, S95W, W96R

What is called IC50 is the midpoint of a concentration-inhibition curve. Low readings indicate greater potency in that assay, high ones weaker potency in that assay.

One test concerns the target proprotein convertase subtilisin/kexin type 9 (PCSK9) (human) (UniProt Q8NBP7). The test can be described thus: PCSK9 biochemical disruption assay (BPS Biosciences Cat. #72010); antibody disrupts PCSK9 binding to LDL-R; positive signal but IC50 not reached at the concentrations tested.
Chain of UniProt Q8NBP7 (Q8NBP7 other isoform, or with tags, fused parts or gaps limits assumed): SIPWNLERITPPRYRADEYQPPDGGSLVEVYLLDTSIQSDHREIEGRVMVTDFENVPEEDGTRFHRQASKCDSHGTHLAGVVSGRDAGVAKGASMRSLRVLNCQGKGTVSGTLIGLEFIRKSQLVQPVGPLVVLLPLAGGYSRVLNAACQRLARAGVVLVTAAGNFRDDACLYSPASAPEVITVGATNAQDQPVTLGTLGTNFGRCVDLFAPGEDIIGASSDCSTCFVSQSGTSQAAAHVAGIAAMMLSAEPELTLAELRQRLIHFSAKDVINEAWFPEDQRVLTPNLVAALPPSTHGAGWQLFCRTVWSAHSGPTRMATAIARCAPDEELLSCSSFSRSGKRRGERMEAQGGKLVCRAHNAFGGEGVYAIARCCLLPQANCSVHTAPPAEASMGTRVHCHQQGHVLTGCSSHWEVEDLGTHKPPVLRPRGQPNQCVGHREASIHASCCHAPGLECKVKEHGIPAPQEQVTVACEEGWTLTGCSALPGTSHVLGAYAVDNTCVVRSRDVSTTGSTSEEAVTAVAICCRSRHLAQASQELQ
The molecule B1 registered an IC50 greater than 0.053 µM.
Still for that read-out and setting: next, B2: greater than 0.053 µM.

For a further test the target is unchanged. The test can be described thus: PCSK9 biochemical disruption assay (BPS Biosciences Cat. #72010); antibody disrupts PCSK9 binding to LDL-R.
B3 returned an IC50 of 0.02 µM.
The same measure, in the same setting: next, B4: 0.0184 µM; B5: 0.0181 µM.
The same measure, in the same setting: under B6 stands 0.0189 µM; under B7, 0.0161 µM.
On the same count and under the same terms, under B8 stands 0.0165 µM; under B9, 0.0172 µM.
Molecule B10 displayed an IC50 of 0.0184 µM.
On the same count and under the same terms, next, B11: 0.0201 µM.
Same read-out and setting: under B12 stands 0.0208 µM.

A further test has the same target. The test can be described thus: DELFIA immunoassay (PerkinElmer Cat. #1244-330) on PCSK9.
Control (antibody) came in with a Relative Binding to PCSK9 Measured by DELIFA Immunoassay of 5.2.

Another test shares this target. The test can be described thus: DELFIA immunoassay (PerkinElmer Cat. #1244-330), full-length IgG on PCSK9.
The molecule B3 came in with a Relative Binding to PCSK9 Measured by DELIFA Immunoassay of 6.6.
Same read-out and setting: next, B4: 1.8.
On the same count and under the same terms, next, B5: 2; B1: 2.9.
Same read-out and setting: under B6 stands 4.3.
The molecule B7 gave a Relative Binding to PCSK9 Measured by DELIFA Immunoassay of 2.8.
Still for that read-out and setting: next, B8: 1.8; B9: 3.1.
On the same count and under the same terms, under B10 stands 2.9; under B11, 4.3.
Still for that read-out and setting: under B12 stands 2.4; under B2, 3.9.
